Measured values: paper PMC5356539, “Neuropilin-1 is a receptor for extracellular miRNA and AGO2/miRNA complexes and mediates the internalization of miRNAs that modulate cell function” (Oncotarget, 2016)

Target: T1, Human recombinant AGO2, full-length protein (human, UniProt Q9UKV8 1-859)
T1 construct: human AGO2 (argonaute 2), full-length recombinant protein; also called full-length AGO2; source: bought: Biorbyt
Assay: ELISA; plate coated with NRP1-Fc; full-length AGO2 pre-mixed or not with an equimolar amount of miR-20a (1 h, 37°C, Ca/Mg-HBSS) and serially diluted; bound AGO2 detected with anti-pan AGO2 antibody, anti-mouse IgG-HRP and TMB (OD450 minus non-specific binding)
Conditions: both partners purified

T1 sequence (Q9UKV8 whole entry): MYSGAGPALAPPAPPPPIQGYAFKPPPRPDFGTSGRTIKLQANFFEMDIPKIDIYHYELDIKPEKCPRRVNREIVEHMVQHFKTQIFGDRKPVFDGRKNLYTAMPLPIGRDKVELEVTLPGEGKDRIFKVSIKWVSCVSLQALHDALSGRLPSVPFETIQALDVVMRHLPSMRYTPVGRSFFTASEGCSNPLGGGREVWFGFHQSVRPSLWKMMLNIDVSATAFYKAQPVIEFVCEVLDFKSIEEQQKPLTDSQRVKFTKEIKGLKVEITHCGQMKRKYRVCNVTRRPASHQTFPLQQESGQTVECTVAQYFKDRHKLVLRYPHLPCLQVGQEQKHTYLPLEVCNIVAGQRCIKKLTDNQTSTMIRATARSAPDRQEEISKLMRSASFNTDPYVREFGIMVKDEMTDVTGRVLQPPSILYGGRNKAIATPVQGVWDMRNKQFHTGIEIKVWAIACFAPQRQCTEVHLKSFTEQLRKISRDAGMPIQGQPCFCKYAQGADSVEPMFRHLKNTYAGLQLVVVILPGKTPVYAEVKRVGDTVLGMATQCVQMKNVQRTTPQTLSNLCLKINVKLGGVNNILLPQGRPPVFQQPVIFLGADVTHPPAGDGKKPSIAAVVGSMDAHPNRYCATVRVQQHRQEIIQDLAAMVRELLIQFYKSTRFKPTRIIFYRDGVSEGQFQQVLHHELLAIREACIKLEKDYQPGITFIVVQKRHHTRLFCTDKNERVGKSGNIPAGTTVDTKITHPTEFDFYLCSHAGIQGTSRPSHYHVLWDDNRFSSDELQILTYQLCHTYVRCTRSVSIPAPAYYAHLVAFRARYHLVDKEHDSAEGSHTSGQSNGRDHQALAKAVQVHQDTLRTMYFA

B1: Recombinant full-length rat neuropilin-1/Fc chimera (Fc fusion, UniProt Q9QWJ9 22-855, looked up)
chain: FRSDKCGGTIKIENPGYLTSPGYPHSYHPSEKCEWLIQAPEPYQRIMINFNPHFDLEDRDCKYDYVEVIDGENEGGRLWGKFCGKIAPSPVVSSGPFLFIKFVSDYETHGAGFSIRYEIFKRGPECSQNYTAPTGVIKSPGFPEKYPNSLECTYIIFAPKMSEIILEFESFDLEQDSNPPGGVFCRYDRLEIWDGFPEVGPHIGRYCGQKTPGRIRSSSGILSMVFYTDSAIAKEGFSANYSVLQSSISEDFKCMEALGMESGEIHSDQITASSQYGTNWSVERSRLNYPENGWTPGEDSYREWIQVDLGLLRFVTAVGTQGAISKETKKKYYVKTYRVDISSNGEDWITLKEGNKAIIFQGNTNPTDVVFGVFPKPLITRFVRIKPASWETGISMRFEVYGCKITDYPCSGMLGMVSGLISDSQITASNQGDRNWMPENIRLVTSRTGWALPPSPHPYINEWLQVDLGDEKIVRGVIIQGGKHRENKVFMRKFKIAYSNNGSDWKMIMDDSKRKAKSFEGNNNYDTPELRAFTPLSTRFIRIYPERATHSGLGLRMELLGCEVEVPTAGPTTPNGNPVDECDDDQANCHSGTGDDFQLTGGTTVLATEKPTIIDSTIQSEFPTYGFNCEFGWGSHKTFCHWEHDSHAQLRWRVLTSKTGPIQDHTGDGNFIYSQADENQKGKVARLVSPVVYSQSSAHCMTFWYHMSGSHVGTLRVKLHYQKPEEYDQLVWMVVGHQGDHWKEGRVLLHKSLKLYQVIFEGEIGKGNLGGIAVDDISINNHIPQEDCAKPTDLDKKNTEIKIDETGSTPGYEEGKGDKNISRKPGNVLKTLDP
notes: rat neuropilin-1, unmodified extracellular domain; transmembrane and cytosolic domains replaced with a C-terminal portion of human IgG-Fc; also called NRP1-Fc; NRP1; source: bought: R&D Systems; not shown: Fc (human IgG), C-terminal, kept
binding result: binds
